The subject of series [1] is T1, L-AVP ((Arg8)-vasopressin) (Homo sapiens).
T1 sequence: CYFQNCPRG
Put plainly: ITC. The conditions noted are these: L-RNA, hexaethylene glycol (PEG) spacer between Helix 2 and Helix 1, 37 C, 20 mM Tris pH 7.4, 150 mM NaCl, 5 mM KCl, 1 mM MgCl2, 1 mM CaCl2.

Another series addresses T2, L-oxytocin (UniProt P01178).
T2 sequence: CYIQNCPLG
Put plainly: ITC. The conditions noted are these: L-RNA; hexaethylene glycol (PEG) spacer between Helix 2 and Helix 1; 3'-C6-amino 40 kDa PEG; 37 C; same buffer; activity 69.8%; about ten times lower affinity than ….

For series [2], the system named is T3, D-AVP (D-(Arg8)-vasopressin, all-D peptide) (Homo sapiens).
T3 sequence: CYFQNCPRG
Put plainly: competition. Particulars: biotinylated D-AVP; selection buffer.

One may read the Kd as the free concentration of one partner at which half of the binding sites on the other are occupied at equilibrium, for simple one-to-one binding. Read a low Kd as tighter binding. As for “GGGGUAGGGCUUGGAUGGGUAGUACACGUGUGCGUGGU [CHF-F-037-3'PEG spiegelmer]”, the Kd in series [1] (3'-C6-amino 40 kDa PEG, activity 59.1%) stood at 1.3 nM; with L-oxytocin, 16 nM. For “AGUGUGCGUGGUUAAUAAUGGGGUAGGGCUUGGAUGGGUAGUACACU [CHF-157-B4 (CHF-F-000)]”, in series [2], the Kd stood at 9.5 nM.

In series [1] (activity 46.8%), “GGGGUAGGGCUUGGAUGGGUAGUACACGUGUGCGUGGU [CHF-F-037 spiegelmer]” gave a Kd of 1.7 nM.

(Values after patent publication US20090181909.)
